In patent US20240409645A1 (DUALYX, published 2024):
Residue numbers refer to the chain shown, from its start.

B1: FJ1427_P035MP05H05 (VHH)
VHH: QVQLVESGGGLVQAGDSLRLSCAASGFNFGWHAMGWFRQAPGKEREFVATITWTGRDTYYADSVRGRFTISKDNAKNTLFLQMSSLRPDDTGVYYCAKARERATWAYSEDDCDYWGQGTQVTVSS
notes: periplasmic extract; also called clone nr
B2: FJ1427_P035MP01E10 (VHH)
VHH: QVQLVESGGGLVQAGDSLRLSCAASGRSFRNYILAWYRQAPGKEREFLAAISWLDGTLYADSVEDRFTISRDNPKNTVHLQMDSLKPEDTAVYYCAADRGPVRPVLAPDVDYWGQGTQVTVSS
notes: periplasmic extract; also called clone nr; 77
B3: FJ1427_P035MP01A01 (VHH)
VHH: B2 VHH with Q1E, S84N, T120S
notes: as for B1
B4: FJ1427_P035MP01B12 (VHH)
VHH: B2 VHH with V5Q, L58F, D61N, D65G, S84G, S122A
notes: periplasmic extract; also called clone nr; 90
B5: FJ1427_P035MP01D11 (VHH)
VHH: B2 VHH with V2L, L34M
notes: periplasmic extract; also called clone nr; 84
B6: FJ1427_P035MP01E02 (VHH)
VHH: B2 VHH with S84N
notes: periplasmic extract; also called clone nr; 13
B7: FJ1427_P035MP01E04 (VHH)
VHH: B2 VHH with A24V, L58F, D61N, D65G, S84G, S122A
notes: periplasmic extract; also called clone nr; 29
B8: FJ1427_P035MP01E07 (VHH)
VHH: B2 VHH with V5Q, D55E
notes: periplasmic extract; also called clone nr; 53
B9: FJ1427_P035MP01F11 (VHH)
VHH: B2 VHH with V5Q
notes: periplasmic extract; also called clone nr; 86
B10: FJ1427_P035MP01G07 (VHH)
VHH: B2 VHH with A14T, D65G
notes: periplasmic extract; also called clone nr; 55
B11: FJ1427_P035MP01F08 (VHH)
VHH: EVQLVESGGGWVQPGDSLRLSCAASGRSFRNYVMGWFRQVPGKEREFLSVITSLGGTLDADSVADRFTISRDNSKNTVYLQMDSLKPEDTAVYYCAADRGPARYISASDVDYWGQGTQVTVSS
notes: periplasmic extract; also called clone nr; 62
B12: FJ1427_P035MP01B01 (VHH)
VHH: B11 VHH with P14A, S28T, L58V, D59Y, D65N, S74P, N76D, V121A
notes: as for B1
B13: FJ1427_P035MP01D04 (VHH)
VHH: B11 VHH with E1Q, S53W
notes: periplasmic extract; also called clone nr; 28
B14: FJ1427_P035MP01F02 (VHH)
VHH: QVQLQESGGGLVQAGGSLRLSCAASGRTFRTHNMGWFRRAPGKEREFVAAISWNIDNKLYADSVKGRSTISRDNGGNMVFLQMNSLKPEDTAVYYCAADKIPLSSDVAATATEYDDWGQGTQVTVSS
notes: periplasmic extract; also called clone nr; 14
B15: FJ1427_P035MP01F06 (VHH)
VHH: QLQLVESGGGLVQAGGSLRLSCAASGGAFSRYAVGWFRMAPGKGREFVSAIDLSGTNTHVLDSVKGRFTISRDNDKNTAYLQMDKLQPEDTAVYWCAATSSSYSDYEANYNIWGQGTQVTVSS
notes: periplasmic extract; also called clone nr; 46
B16: FJ1427_P035MP01G10 (VHH)
VHH: B15 VHH with Q1E, L2V
notes: periplasmic extract; also called clone nr; 79
B17: FJ1427_P035MP01H02 (VHH)
VHH: B15 VHH with G16D, G27R, D52N, L53S, T56A, H59Y, K85S, D105T, I112V
notes: periplasmic extract; also called clone nr; 16
B18: FJ1427_P035MP01F07 (VHH)
VHH: QVQLVESGGGLVQAGGSLRLSCAATGLTFRQHNMGWFRRAPGKEREFVAAISWNVGSTYFADSVKGRFTISRDNGKNMVYLQMNSLKPEDTAVYYCAADNIPLASDMRATATAYGYWGQGTQVTVSS
notes: periplasmic extract; also called clone nr; 54
B19: FJ1427_P035MP01E12 (VHH)
VHH: QVQLVESGGGLVQAGGSLRLSCAASGITFNDHTMAWFRQAPGKEREFVAARDWSDIITRYASSVKGRFTISRDNAGNTGFLQMNSLRPEDTAVYYCAAREGGVVAGVRSGAPYDYWGQGTQVTVSS
notes: periplasmic extract; also called clone nr; 93
B20: FJ1427_P035MP01F12 (VHH)
VHH: B19 VHH with Q1E, R19G, S126P
notes: periplasmic extract; also called clone nr; 94
B21: FJ1427_P035MP01G11 (VHH)
VHH: B19 VHH with Q118R
notes: periplasmic extract; also called clone nr; 87
B22: FJ1427_P035MP05B03 (VHH)
VHH: B19 VHH with V5Q, A14P
notes: as for B1
B23: FJ1427_P035MP05H01 (VHH)
VHH: B19 VHH with Q1E
notes: as for B1
B24: FJ1427_P035MP05H02 (VHH)
VHH: B19 VHH with Q1E, S62G
notes: periplasmic extract; also called clone nr; 400
B25: FJ1427_P035MP05E11 (VHH)
VHH: EVQLVESGGGSVQAGGSLRLSCAASGRTLYSSYGMAWFRQAPGKERDFVGSISRYGTYTSYADSVKDRFTISRDNAKSTVYLQMNNTKPEDTAVYYCAAYTYSGSFYSTVKTHRDEYQYWGQGTQVTVSS
notes: as for B1
B26: FJ1427_P035MP05A07 (VHH)
VHH: B25 VHH with E1Q, S11L, V12A, G16A, D67G
notes: as for B1
B27: FJ1427_P035MP05C04 (VHH)
VHH: B25 VHH with A23E, Y30F, A36G, D47E, S51A, Y55F, S64P, R114H, Q118R
notes: periplasmic extract; also called clone nr; 411
B28: FJ1427_P035MP05C07 (VHH)
VHH: B25 VHH with E1Q, A23E, Y30F, A36G, D47E, S51A, Y55F, S64P, R114H, Q118R
notes: periplasmic extract; also called 92-MP05C07
B29: FJ1427_P035MP05E03 (VHH)
VHH: B25 VHH with S11L
notes: as for B1

Biological target: T1, human IL-2Rα (human, UniProt P01589 22-240, limits assumed)
T1 construct: recombinant protein; also called hu IL-2R; human IL-2Ra
T1 sequence: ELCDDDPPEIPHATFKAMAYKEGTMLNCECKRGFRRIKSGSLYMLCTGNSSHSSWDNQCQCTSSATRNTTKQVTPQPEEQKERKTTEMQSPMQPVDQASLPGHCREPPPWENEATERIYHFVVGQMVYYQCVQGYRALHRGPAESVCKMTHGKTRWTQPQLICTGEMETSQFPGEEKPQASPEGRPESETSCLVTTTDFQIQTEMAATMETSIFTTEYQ
Experiment: ELISA, P.E. on coated antigen
Method: In a binding ELISA, human or mouse IL-2Rα, IL-2Rβ and IL-2Rγ proteins were coated directly on maxisorp microtiter plates overnight at 4° C. Free binding sites were blocked using 4% Marvel in PBS for 1 hour. Next, 1:5 dilution of P.E. in 1% Marvel/PBS were added to wells and incubated for 1 hour. […] Binding specificity was determined based on O.D. at 450 nm values compared to negative controls.

| Binder | OD (PE binding ELISA) [OD450 nm] |
| --- | --- |
| B1 | 2.51 |
| B2 | 2.78 |
| B3 | 2.85 |
| B4 | 3.05 |
| B5 | 3.21 |
| B6 | 2.86 |
| B7 | 2.61 |
| B8 | 2.73 |
| B9 | 2.74 |
| B10 | 2.75 |
| B11 | 2.71 |
| B12 | 2.78 |
| B13 | 2.76 |
| B14 | 2.5 |
| B15 | 2.71 |
| B16 | 2.75 |
| B17 | 2.35 |
| B18 | 2.76 |
| B19 | 2.69 |
| B20 | 2.67 |
| B21 | 2.73 |
| B22 | 2.42 |
| B23 | 2.62 |
| B24 | 2.29 |
| B25 | 2.35 |
| B26 | 2.43 |
| B27 | 1.83 |
| B28 | 1.73 |
| B29 | 2.48 |

Biological target: T1, human IL-2Rα
Experiment: SPR, P.E. on immobilised antigen
Method: SPR was performed to determine dissociation rates using Biacore 3000 instrument (GE Healthcare). Briefly, human and mouse IL-2R proteins were immobilized on carboxylmethyl dextran sensor chip (CM5) at approximately 2500 RUs using amine coupling in acetate buffer (GE Healthcare). The VHH-containing P.E. were loaded with a flow rate of 30 uL/min and the off-rates were measured over a 120s period.

| Binder | koff [s⁻¹] |
| --- | --- |
| B1 | 0.000591 |
| B2 | 0.00119 |
| B3 | 0.00112 |
| B4 | 0.00144 |
| B5 | 0.0027 |
| B6 | 0.00128 |
| B7 | 0.00235 |
| B8 | 0.00159 |
| B9 | 0.00118 |
| B10 | 0.0015 |
| B11 | 0.00162 |
| B12 | 0.00178 |
| B13 | 0.00295 |
| B14 | 0.00391 |
| B15 | 0.000526 |
| B16 | 0.000443 |
| B17 | 0.00115 |
| B18 | 0.00067 |
| B19 | 0.000141 |
| B20 | 0.00011 |
| B21 | 0.000123 |
| B22 | 0.000131 |
| B23 | 0.000141 |
| B24 | 0.000141 |
| B25 | 0.001 |
| B26 | 0.00104 |
| B27 | 0.000905 |
| B28 | 0.00141 |
| B29 | 0.000772 |
